Data on four molecules can be found in article doi:10.1101/2024.12.01.626218, “TTF2 drives mitotic replisome disassembly and MiDAS by coupling the TRAIP ubiquitin ligase to Polε” (bioRxiv, 2024).

Where no end group is shown, it is not given here. [ ]: non-standard residue; d: D form. pT = C[C@@H](OP(=O)(O)O)[C@H](N)C(=O)O

Data set [1] deals with the molecule itself. Briefly: mass photometry; Refeyn OneMP; TRAIP diluted to 6.4 ng/µl (~50 nM of TRAIP dimer); 25 mM Hepes-KOH pH 7.9, 150 mM NaCl, 10 mM MgOAc, 1 mM DTT.
Data set [2] concerns the target T1, His-SUMO-TTF2 1-100 (tandem zinc fingers) (Mus musculus, UniProt Q5NC05 1-100).
T1 sequence: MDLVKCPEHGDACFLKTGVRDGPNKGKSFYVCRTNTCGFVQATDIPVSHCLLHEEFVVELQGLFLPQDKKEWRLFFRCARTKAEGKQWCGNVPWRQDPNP
Briefly: EMSA; 10 nM DNA; EMSA buffer (25 mM buffer component; full composition not in the material), 10 nM Cy5-DNA, 10 µl, room temperature, 10 min; Novex TBE 4-12% gel, 150 V, 40 min. To be noted: protein: recombinant, tags: N-terminal 14His-SUMO (yeast Smt3). Background: Mobility shift assays separate free from complexed probe on a gel.

The target in data set [3] is T2, HisSUMO-TTF2 1-100 (mouse, UniProt Q5NC05 1-100).
T2 construct: mouse TTF2 residues 1-100 (tandem Zinc fingers); also called His-SUMO-tagged TTF2; recombinant form of TTF2 1-100; source: E. coli Rosetta (DE3) pLysS, purified (Ni-NTA, Superdex 200); not shown: 14His, N-terminal, kept; Smt3 (budding yeast SUMO), N-terminal, kept
T2 sequence (looked up): T1 sequence
The data set is described as follows: ITC; MicroCal PEAQ-ITC; 20 µM HisSUMO-TTF2 1-100 in the cell, 200 µM TRAIP peptide injected (19 x 2 µl); 50 mM Tris-HCl pH 7.5, 100 mM NaCl, 0.5 mM TCEP. Particulars: both partners purified. (In ITC the heat of successive injections is recorded.)

For data set [4], the target named is T3, HisSUMO-TTF2 1-100 (mouse, UniProt Q5NC05 1-100).
T3 chain: T1 sequence
Briefly: ITC; phosphorylated T325.

B1: recombinant mouse TRAIP (enzyme, UniProt Q8VIG6-1 1-470, looked up)
chain: MPIRALCTICSDFFDHSRDVAAIHCGHTFHLQCLIQWFETAPSRTCPQCRIQVGKKTIINKLFFDLAQEEENVLDAEFLKNELDSVKAQLSQKDREKRDSQAIIDTLRDTLEERNATVESLQNALNKAEMLCSTLKKQMKFLEQRQDETKQAREEAHRLKCKMKTMEQIELLLQSQRSEVEEMIRDMGVGQSAVEQLAVYCVSLKKEYENLKEARKATGELADRLKKDLVSSRSKLKTLNTELDQAKLELRSAQKDLQSADQEITSLRKKLMILQGTLSLPPATNETVSRLVFESPAPVEMMNPRLHQPPFGDEIDLNTTFDVNTPPTQTSGSQHCLPKKLCLERARSPMQNVLKKVHKVSKPESQLSLGGQRCVGELDEELAGAFPLFIRNAVLGQKQPNRTTAESRCSTDVVRIGFDGLGGRTKFIQPRDTTIIRPVPVKSKAKSKQKVRIKTVSSASQPKLDTFLCQ
notes: Mw of the monomer 53.1 kDa; the tag was cut off with Ulp1; also called purified TRAIP; TRAIP ubiquitin ligase; source: E. coli Rosetta (DE3) pLysS, purified (Ni-NTA, HiTrapQ, HiTrap Heparin, Superose 6); not shown: 14His-Smt3 (budding yeast SUMO), N-terminal, cleaved
With B1, the stoichiometry N (as a rule, the number of molecules, sites or subunits per partner or assembly) in data set [1] was determined as 2.

B2: YX011 80-nt ssDNA (ssDNA)
DNA: CAGTGCCAAGCTTGCATGCCTGCAGGTCGACTCTAGAGGATCCCCGGGTACCGAGCTCGAATTCGTAATCATGGTCATAG
For the molecule B2, the binding result in data set [2] (label: 5'-Cy5) is “no binding”.

B3: YX011/YX012 80-bp dsDNA (dsDNA)
DNA 1: B2 DNA
DNA 2: CTATGACCATGATTACGAATTCGAGCTCGGTACCCGGGGATCCTCTAGAGTCGACCTGCAGGCATGCAAGCTTGGCACTG
For B3, the binding result in data set [2] (label: 5'-Cy5 on strand 1, blunt) is listed as “no binding”.

B4: peptide corresponding to mouse TRAIP 313-329 with phosphorylated T325 (peptide)
peptide: FGDEIDLNTTFDVN[pT]PPTQ
modifications: not fully specified; printed as FGDEIDLNTTFDVN**T**PPTQ
notes: mouse TRAIP; the CDK consensus (T followed by P) points to the 15th letter; also called phosphorylated peptide; source: synthetic peptide (Peptide & Elephants)
Turning to B4, the binding result in the data set with HisSUMO-TTF2 1-100 [3] is “binds”. For the same molecule, the dissociation constant (Kd) (usually the equilibrium constant for the complex coming apart) in the data set with HisSUMO-TTF2 1-100 [4] is 2300 nM.
